Patent publication US20240317834A1, “COMPOSITIONS AND METHODS FOR NEUROLOGICAL DISEASES” (CODA BIOTHERAPEUTICS, INC., priority 2020, published 2024)
Entries after “also recorded” stand apart in the source; their conditions may differ.

Assays:
Assay type in all cases: cell-based
HEK293 cells = assay: Whole cell manual patch clamp electrophysiology, ligand-induced currents and EC50 in HEK293 cells
Description: Using whole cell manual patch clamp electrophysiology in HEK293 cells, rat DRG neurons and rat hippocampal neurons, the EC50 of the various engineered receptors disclosed herein to Ach and non-native ligands was measured using the Hill equation with peak current measurements from escalating doses of ligand. The rheobase shift was also measured in rat DRG neurons, which reflects the efficacy of the receptors. To calculate the rheobase, first, the amount of current that can produce an action potential was determined. Then the ligand was added, followed by a step wise increase in the current injected up to 700 pA.
For manual patch clamp experiments, Cells plated on coverslips were visualized at 10× and 40× on an inverted fluorescence microscope (Olympus). Recordings were made with an Axopatch 200B amplifier and Digidata 1550B (Molecular Devices) at RT using 3-6 MOhm glass patch electrodes (Sutter, BF150-86-10). Unless otherwise stated, recordings were made in extracellular solution (ECS) containing: 140 mM sodium chloride, 4 mM potassium chloride, 1 mM magnesium chloride, 2 mM calcium chloride, 10 mM HEPES, and 10 mM D-(+)-glucose (pH=7.3 with sodium hydroxide, osmolarity=305−315 mOsm). […] Traces were either analyzed in Clampfit (Molecular Devices) or using custom Python code. […]
For dose-response, ligand-induced currents were recorded in voltage clamp mode. […]

rat DRG neurons = assay: Rheobase shift and evoked action potentials in rat DRG neurons (current clamp)
In short: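 Rat DRG neurons expressing engineered receptors, whole-cell current clamp at RT. ECS at pH 7.3; K-gluconate internal at pH 7.2. 500 ms steps from −200 to 700 pA with and without ligand. Rheobase taken as the smallest depolarising step that fires an action potential; input resistance from negative steps.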

HEK293T cells = assay: High throughput electrophysiology (IonFlux automated patch clamp), EC50 of engineered receptors to ligands
Description: To confirm the EC50s determined by plate reader as well as develop a better understanding of maximum current flow, the engineered receptors were subjected to high throughput electrophysiology system, as described below. For HEK293T studies, cDNAs encoding ion channels were cloned into pcDNA3.1 using standard recombination techniques. HEK293T cells from Clontech (Lenti-X™ 293T Cell Line) were cultured in DMEM supplemented with 10% FBS and 1% Pen/Strep to 40-50% confluence using standard cell culture protocols, transfected with ion channel plasmids at a concentration of 18 μg per 15 cm dish using Fugene 6, and grown for an additional 24 hours. Cells were then assayed on an electrophysiological system (IonFluxHT and/or Mercury, Fluxion Biosciences) in which dose-response relationships may be assessed through a microfluidics-based platform for establishing whole cell configurations. Ensemble plates were primed with extracellular buffer (140 mM NaCl, 5 mM KCl, 2 mM CaCl2), 1 mM MgCl2, 10 mM HEPES, and 10 mM glucose, pH 7.2 with NaOH, mOsm 310), intracellular buffer (145 mM CsCl, 2 mM CaCl2), 2 mM MgCl2, 10 mM HEPES, and 10 mM EGTA, pH 7.2 with CsOH, mOsm 305), as adapted from Lynagh and Lynch, and test compounds (stocks prepared fresh) diluted in extracellular buffer. Cells were then released from the plate with Accutase, centrifuged, resuspended in extracellular buffer, and loaded into Ensemble plates. Cells were then subjected to a standard protocol for priming, trapping, breaking, and establishing whole cell configuration, with cells held at −60 mV throughout the recording. After recording baseline, progressive doses of test compounds were applied using the IonFlux software to assess dose response relationships. Data were then analyzed off-line using custom Python scripts to convert data to .csv format, re-plot traces, and apply QC measurements to reject unstable recordings (i.e. thresholding based on access resistance and/or standard deviation in baseline, as well as artifact rejection). Peak currents were then calculated, and population data were fit using a 4-parameter logistic equation as described by the Hill Equation. Currents were measured on an automated patch clamp system (Fluxion Biosciences) following 1 second addition of drug and the EC50 values calculated are tabulated below in Table 22 below and Table 21 above (in Example 2).

B1: CODA806: engineered chimeric LGIC receptor, Y115D, L131Q in SEQ ID NO: 33 (protein)
chain: MRCSPGGVWLALAASLLHVSLQGEFQRKLYKELVKNYNPLERPVANDSQPLTVYFSLSLLQIMDVDEKNQVLTTNIWLQMSWTDHYLQWNVSEYPGVKTVRFPDGQIWKPDILLDNSADERFDATFHTNVQVNSSGHCQYLPPGIFKSSCPMDLKNFPMDVQTCKLKFGSWSYGGWSLDLQMQEADISGYIPNGEWDLVGIPGKRSERFYECCKEPYPDVTFTVTMRRRMGYYLIQMYIPSLLIVILSWISFWINMDAAPARVGLGITTVLTMTTQSSGSRASLPKVSYVKAIDIWMAVCLLFVFSALLEYAAVNFVSRQHKELLRFRRKRRHHKSPMLNLFQEDEAGEGRFNFSAYGMGPACLQAKDGISVKGANNSNTTNPPPAPSKSPEEMRKLFIQRAKKIDKISRIGFPMAFLIFNMFYWIIYKIVRREDVHNQ
modifications: synthetic sequence of chimeric LGIC
- sensitivity to RG-3487 compared with wildtype nAchRa7 receptor (HEK293 cells): way more sensitive
- sensitivity to acetylcholine, current generated (HEK293 cells; Ach up to 100 mM, compared with wildtype nAchRa7 receptor, listed as Y115D and L131Q in SEQ ID NO: 33): essentially insensitive; also recorded: almost no current could be generated
- Rheobase Shift; Rat DRG Neurons, Baseline (rat DRG neurons; Baseline, no ligand): 163 ± 28 pA
- Rheobase Shift; Rat DRG Neurons, Facinicline/RG-3487 @ EC90 (rat DRG neurons; Facinicline/RG-3487 @ EC90): 625 ± 35 pA
- effect on current injection evoked action potentials (rat DRG neurons; RG-3487 (SA-2) 3 μM, transduced rat DRG neurons): reversibly inhibits
- increase in the current required to elicit action potentials (rheobase) (rat DRG neurons; RG-3487 (SA-2) 3 μM, transduced rat DRG neurons, n=7): ~3 ×
- effect on evoked action potentials (rat DRG neurons; acetylcholine 3.0 mM, transduced rat DRG neurons, n=4): no effect
- fold increased potency towards RG-3487 compared with wild type receptor (HEK293T cells; ligand RG-3487): over 10 fold
- fold reduced potency to acetylcholine compared with wild type receptor (HEK293T cells; ligand acetylcholine): over 500 fold
